Where two headings read alike, the source gives them in different places. Square brackets hold non-standard residues; d marks the D form. Ends that are not written are not given here.
T1: synthetic amyloid fibrils composed of human islet amyloid polypeptide (human, UniProt P10997 34-70)
T1 peptide (looked up): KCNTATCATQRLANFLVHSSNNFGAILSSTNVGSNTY


Tests used:
[1] = biological target: synthetic amyloid fibrils composed of recombinant Vλ6 protein Wil; assay: SPR
[2] = biological target: synthetic amyloid fibrils composed of recombinant Vλ6 protein Wil; assay: SPR; remark: listed apart in the source
[3] = biological target: synthetic amyloid fibrils composed of recombinant Vλ6 protein Wil; assay: pull-down
[4] = biological target: synthetic amyloid fibrils composed of Aβ(1-40) peptide; assay: pull-down
[5] = biological target: T1, synthetic amyloid fibrils composed of …; assay: pull-down

Kd [1] [nM]	Kd [2] [nM]	ka1 (two-state model, first step) [2] [M⁻¹ s⁻¹]	ka2 (two-state model, second step) [2] [s⁻¹]	kd1 (two-state model, first step) [2] [s⁻¹]	kd2 (two-state model, second step) [2] [s⁻¹]	percent inhibition of the binding of m6 (125I-p5) by a 1000-fold molar excess [3] [%]	percent inhibition of the binding of m7 (125I-p5(D)) by a 1000-fold molar excess [3] [%]	ratio of 1 M/0.15 M pulldown data (bound peptide in 1 M NaCl over that in PBS) [4]	ratio of 1 M/0.15 M pulldown data (bound peptide in 1 M NaCl over that in PBS) [3]	ratio of 1 M/0.15 M pulldown data (bound peptide in 1 M NaCl over that in PBS) [5]	Binder
10	25	420000	0.007	0.026	0.0028	–	–	–	–	–	VYKVKTKVKTKVKTKVKT [peptide p5(sheet)]
25	71	120000	0.0122	0.045	0.0024	–	–	–	–	–	GGGYSKAQKAPAKQAKQPQKAQKAPAKQAKQ [peptide p5(Pro3)]
3.7	15	480000	0.0315	0.203	0.0011	95	80	–	–	–	GGGYSKAQKAQAKQAKQAQKAQKAQAKQAKQ [peptide p5]
–	–	–	–	–	–	–	–	0.01	0.01	0.07	GGGYSKAQKAPAKQAKQPQKAQKAPAKQAKQ (also: radioiodinated with iodine-125, site not given here) [125I-labeled peptide p5(Pro3)]
5.4	22	550000	0.0074	0.052	0.0017	–	–	–	–	–	GGG[dY][dS][dK][dA][dQ][dK][dA][dQ][dA][dK][dQ][dA][dK][dQ][dA][dQ][dK][dA][dQ][dK][dA][dQ][dA][dK][dQ][dA][dK][dQ] [peptide p5(D)]
18	34	75000	7.9e-06	0.001	1.5e-05	–	–	–	–	–	GGGYSKGGKGGGKGGKGGGKGGKGGGKGGKG [peptide p5(coil)]
–	–	–	–	–	–	–	–	0.07	0.02	0.12	GGGYSKGGKGGGKGGKGGGKGGKGGGKGGKG (also: radioiodinated with iodine-125, site not given here) [125I-labeled peptide p5(coil)]
–	–	–	–	–	–	–	–	0.21	0.35	0.2	VYKVKTKVKTKVKTKVKT (also: radioiodinated with iodine-125, site not given here) [125I-labeled peptide p5(sheet)]
